Source: PMC5405427

Columns and labels:
IBV nsp9 wild-type [1] = molecular target: T1, IBV nsp9 wild-type (avian infectious bronchitis virus (IBV) …, UniProt P0C6Y3 3675-3785); assay: zone-interference gel electrophoresis
T1 sequence: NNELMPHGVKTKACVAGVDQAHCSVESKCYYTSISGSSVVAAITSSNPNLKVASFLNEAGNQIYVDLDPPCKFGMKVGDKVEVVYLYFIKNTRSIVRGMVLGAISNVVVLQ

IBV nsp9 wild-type [2] = molecular target: T1, IBV nsp9 wild-type; assay: BLI

CGACTCATGGACCTTGGCAG (ssDNA) [20-mer ssDNA]
binding result (IBV nsp9 wild-type [1]): binds

CGACUCAUGGACCUUGGCAG (ssRNA, phosphorothioate linkages at last two 3' residues (A19, G20)) [20-mer RNA, biotin (BLI)]
Kd (IBV nsp9 wild-type [2]): 28 µM
